The record followed here is the RNAGym collection of RNA variant scans (doi:10.7554/elife.80360).

First the molecules themselves.
B1: Twister Ribozyme (parent)
chain: AACACUGCCAAUGCCGGUCCCAAGCCCGGAUAAAAGUGGAGGGGGCGG

In the data set the parent is B1. Nature of the data set: self-cleavage, relative activity (ratio to wild type); higher = more cleavage; co-transcriptional.
For AACACCGACAAUGCCGGUCCCAAGCCCGGAUAAAAGUGGAGGGGGCGG, the self-cleavage stood at 0.047.

AACACCGGCAAUGCCGGUCCCAAGCCCGGAUAAAAGUGGAGGGGGCGG: the self-cleavage was 0.0656.

AACACGGCCAAUGCCGGUCCCACGCCCGGAUAAAAGUGGAGGGGGCGG: the self-cleavage was determined as 0.0334.

Take AACACGGCCAAUGCCGGUCCCAGGCCCGGAUAAAAGUGGAGGGGGCGG: the self-cleavage turned out to be 0.0873.

AACACCGCCAAUGCCGGUCCGAAGCCCGGAUAAAAGUGGAGGGGGCGG: the self-cleavage is 0.109.

In the case of AACACCGCCAAUGCCGGUCCAAAGCCCGGAUAAAAGUGGAGGGGGCGG, the self-cleavage turned out to be 0.0427.

As for AACACCGCCAAUGUCGGUCCCAAGCCCGGAUAAAAGUGGAGGGGGCGG, the self-cleavage came to 0.473.

Turning to AACACCGCCAAUGACGGUCCCAAGCCCGGAUAAAAGUGGAGGGGGCGG, the self-cleavage was determined as 0.504.

Take AACACGGCCAAUGCCGGUCCCCAGCCCGGAUAAAAGUGGAGGGGGCGG: the self-cleavage was 0.485.

For AACACGGCCAAUGCCGGUCCCGAGCCCGGAUAAAAGUGGAGGGGGCGG, the self-cleavage was 0.106.

For AACACCGCCAAUGCCGGUCCCAAGCCCGGAUAAAAGUGGAGGGGUCGG, the self-cleavage amounted to 0.495.

For AACACCGCCAAUGCCGGUCCCAAGCCCGGAUAAAAGUGGAGGGGCCGG, the self-cleavage stood at 0.206.

In the case of AACACCGCCAAUGCCGGUCCCAAGCCCGGAUAAAAGUGGAGGGGACGG, the self-cleavage is 0.6.

With AACACGGCCAAUGCCGGUCCCAAGCCCGGAUAAAAGUAGAGGGGGCGG, the self-cleavage stood at 0.315.

As to AACACGGCCAAUGCCGGUCCCAAGCCCGGAUAAAAGUCGAGGGGGCGG, the self-cleavage is 0.168.

In the case of AACACGGCCAAUCCCGGUCCCAAGCCCGGAUAAAAGUGGAGGGGGCGG, the self-cleavage was found to be 0.078.

On to AACACGGCCAAUACCGGUCCCAAGCCCGGAUAAAAGUGGAGGGGGCGG, for which the self-cleavage was found to be 0.086.

On to AACACGGCCAAUUCCGGUCCCAAGCCCGGAUAAAAGUGGAGGGGGCGG, for which the self-cleavage was determined as 0.0456.

For the variant AACACCGCCAAUGCCGGUCCCAAUCCCGGAUAAAAGUGGAGGGGGCGG, the self-cleavage was found to be 0.0929.

Take AACACGGCCAAUGCCGGUCCCAAGCCCGGAUGAAAGUGGAGGGGGCGG: the self-cleavage is 0.337.

Turning to AACACGGCCAAUGCCGGUCCCAAGCCCGGAUCAAAGUGGAGGGGGCGG, the self-cleavage stood at 0.419.

On to AACACGGCAAAUGCCGGUCCCAAGCCCGGAUAAAAGUGGAGGGGGCGG, for which the self-cleavage came to 0.279.

In the case of AACACCGCCAAUGCCGGUCCCAAGCCCGGAUAAAUGUGGAGGGGGCGG, the self-cleavage amounted to 0.619.

Take AACACCGCCAAUGCCGGUCCCAAGCCCGGAUAAAGGUGGAGGGGGCGG: the self-cleavage is 0.832.

As to AACACGGCCAAUGACGGUCCCAAGCCCGGAUAAAAGUGGAGGGGGCGG, the self-cleavage was 0.313.

With AACACGGCCAAUGGCGGUCCCAAGCCCGGAUAAAAGUGGAGGGGGCGG, the self-cleavage was determined as 0.0983.

Take AACACGGCCAAUGCCGGUCCCAAGCCCGCAUAAAAGUGGAGGGGGCGG: the self-cleavage was found to be 0.139.

On to AACACGGCCAAUGCCGGUCCCAAGCCCGAAUAAAAGUGGAGGGGGCGG, for which the self-cleavage amounted to 0.19.

In the case of AACACCGCCAAUGCCGGUCCCAAGCCCGGAUAAAAGUCGAGGGGGCGG, the self-cleavage was 0.249.

For AACACCGCCAAUGCCGGUCCCAAGCCCGGAUAAAAGUAGAGGGGGCGG, the self-cleavage amounted to 0.423.

With AACACCGCCAAUGCCGGUCCCAAGCCCGGAUAAAACUGGAGGGGGCGG, the self-cleavage turned out to be 0.112.

In the case of AACACGGCCAAUGCCGGUCCCAAGCCCGGAUAAUAGUGGAGGGGGCGG, the self-cleavage was determined as 0.493.

For the variant AACACGGCCAAUGCCGGUCCGAAGCCCGGAUAAAAGUGGAGGGGGCGG, the self-cleavage was determined as 0.116.

On to AACACGGCCAGUGCCGGUCCCAAGCCCGGAUAAAAGUGGAGGGGGCGG, for which the self-cleavage was determined as 0.52.

As for AACACGGCCACUGCCGGUCCCAAGCCCGGAUAAAAGUGGAGGGGGCGG, the self-cleavage was determined as 0.173.

On to AACACCGCCAAUGCCGGUCCCAAGCCCGGAUAAAAGGGGAGGGGGCGG, for which the self-cleavage stood at 0.181.

With AACACCGCCAAUGCCGGACCCAAGCCCGGAUAAAAGUGGAGGGGGCGG, the self-cleavage amounted to 0.0773.

In the case of AACACCGCCAAUGCCGGUCCCAAGCUCGGAUAAAAGUGGAGGGGGCGG, the self-cleavage stood at 0.0774.

Consider AACACCGCCAAUGCCGGUCCCAAGACCGGAUAAAAGUGGAGGGGGCGG, for which the self-cleavage came to 0.108.

As for AACACGGCCAAUGCCGGUCCCAAGCCCGGAUACAAGUGGAGGGGGCGG, the self-cleavage is 0.367.

In the case of AACACGGGCAAUGCCGGUCCCAAGCCCGGAUAAAAGUGGAGGGGGCGG, the self-cleavage was found to be 0.2.

For the variant AACACGGUCAAUGCCGGUCCCAAGCCCGGAUAAAAGUGGAGGGGGCGG, the self-cleavage stood at 0.16.

AACACCUCCAAUGCCGGUCCCAAGCCCGGAUAAAAGUGGAGGGGGCGG: the self-cleavage is 0.0403.

Turning to AACACGGCCGAUGCCGGUCCCAAGCCCGGAUAAAAGUGGAGGGGGCGG, the self-cleavage was 0.644.

Take AACACGGCCCAUGCCGGUCCCAAGCCCGGAUAAAAGUGGAGGGGGCGG: the self-cleavage stood at 0.136.

On to AACACCGCCAAUGCCUGUCCCAAGCCCGGAUAAAAGUGGAGGGGGCGG, for which the self-cleavage is 0.371.

As for AACACGGCCAAUGCCGGUCCCAAGCCCGGAUAAAAAUGGAGGGGGCGG, the self-cleavage amounted to 0.0942.

In the case of AACACGGCCAAUGCCGGUCCCAAGCCCGGCUAAAAGUGGAGGGGGCGG, the self-cleavage was 0.246.

On to AACACCGCCAAUGCGGGUCCCAAGCCCGGAUAAAAGUGGAGGGGGCGG, for which the self-cleavage came out at 0.1.

For the variant AACACGGCCAAUGCCGGUGCCAAGCCCGGAUAAAAGUGGAGGGGGCGG, the self-cleavage was determined as 0.

Take AACACGGCCAAUGCCGGUUCCAAGCCCGGAUAAAAGUGGAGGGGGCGG: the self-cleavage stood at 0.264.

AACACGGCCAAUGCCGGUACCAAGCCCGGAUAAAAGUGGAGGGGGCGG: the self-cleavage was 0.0816.

With AACACGGCCAAUGCCGGUCCCAAGCCCUGAUAAAAGUGGAGGGGGCGG, the self-cleavage amounted to 0.0702.

For the variant AACACGGCCAAUGCCGGUCCCAAGCCCAGAUAAAAGUGGAGGGGGCGG, the self-cleavage came out at 0.138.
